pIC50: −log10 of the molar value.
Target: Terbium (Tb) labeled-SNAP tagged ROBO2 expressed on HEK293 cells (Homo sapiens (Human)) (UniProt Q9HCK4)
Assay: HTRF competition, competitor d2-SLIT2-N, ROBO2 HEK293 cells

Terbium (Tb) labeled-SNAP tagged ROBO2 expressed on HEK293 cells (Homo sapiens (Human)), sequence (Q9HCK4 22-1378): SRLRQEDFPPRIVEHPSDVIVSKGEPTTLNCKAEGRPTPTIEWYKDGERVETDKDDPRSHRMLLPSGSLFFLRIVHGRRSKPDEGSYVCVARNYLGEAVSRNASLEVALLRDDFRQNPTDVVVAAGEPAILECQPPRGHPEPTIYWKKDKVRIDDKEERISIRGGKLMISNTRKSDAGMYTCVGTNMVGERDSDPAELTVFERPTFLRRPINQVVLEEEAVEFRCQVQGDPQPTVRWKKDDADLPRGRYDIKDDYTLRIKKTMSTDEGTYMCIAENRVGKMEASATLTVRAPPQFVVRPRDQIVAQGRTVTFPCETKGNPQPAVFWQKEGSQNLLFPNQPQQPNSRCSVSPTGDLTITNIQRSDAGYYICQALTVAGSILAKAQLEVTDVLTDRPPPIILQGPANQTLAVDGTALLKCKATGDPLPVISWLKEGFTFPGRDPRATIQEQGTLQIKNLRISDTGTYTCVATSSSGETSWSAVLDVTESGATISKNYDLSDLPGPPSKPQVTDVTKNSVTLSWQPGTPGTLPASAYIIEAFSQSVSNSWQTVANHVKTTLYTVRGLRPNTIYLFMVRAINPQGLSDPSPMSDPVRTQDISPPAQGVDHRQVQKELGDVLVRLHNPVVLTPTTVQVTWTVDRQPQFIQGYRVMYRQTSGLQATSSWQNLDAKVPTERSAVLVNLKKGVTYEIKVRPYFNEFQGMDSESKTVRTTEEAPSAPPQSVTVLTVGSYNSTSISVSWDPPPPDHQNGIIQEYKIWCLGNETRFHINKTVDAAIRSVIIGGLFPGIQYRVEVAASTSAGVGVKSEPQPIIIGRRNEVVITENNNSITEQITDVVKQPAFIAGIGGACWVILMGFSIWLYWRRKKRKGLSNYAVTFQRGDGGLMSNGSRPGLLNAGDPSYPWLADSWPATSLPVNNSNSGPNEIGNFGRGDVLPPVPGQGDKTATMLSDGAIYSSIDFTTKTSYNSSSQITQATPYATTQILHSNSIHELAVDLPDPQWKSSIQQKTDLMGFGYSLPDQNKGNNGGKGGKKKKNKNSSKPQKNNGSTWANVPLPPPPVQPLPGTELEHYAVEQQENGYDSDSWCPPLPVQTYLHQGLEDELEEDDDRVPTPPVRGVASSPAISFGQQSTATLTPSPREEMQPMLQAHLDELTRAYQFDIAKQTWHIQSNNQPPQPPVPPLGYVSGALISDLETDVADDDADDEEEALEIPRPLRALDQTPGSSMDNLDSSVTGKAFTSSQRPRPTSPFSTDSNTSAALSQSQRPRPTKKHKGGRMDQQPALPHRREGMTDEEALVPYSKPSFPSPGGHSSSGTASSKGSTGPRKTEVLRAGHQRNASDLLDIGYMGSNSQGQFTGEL

pIC50: 6.90
Substance: Control Ab (antibody)
